Measurements reported in WO2014192202A1 (dated 2014).

Molecular target: T1, human cardiac muscle-derived troponin I (human, UniProt P19429 2-210)
T1 construct: Immobilised on a CM5 chip at about 500 RU; also called troponin I derived from human myocardium; human myocardial troponin I
Assay: SPR (Biacore T100), troponin I immobilised on CM5 chip, as in Example 1

T1 sequence (P19429 2-210 limits assumed): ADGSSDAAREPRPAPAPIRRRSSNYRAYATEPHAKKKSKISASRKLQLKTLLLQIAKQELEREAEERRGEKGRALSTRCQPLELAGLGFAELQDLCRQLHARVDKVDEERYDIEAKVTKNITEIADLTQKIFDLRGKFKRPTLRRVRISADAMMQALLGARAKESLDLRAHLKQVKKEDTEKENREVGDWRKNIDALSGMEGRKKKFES

binding result: binds
B1: wild type scFv antibody fragment (SEQ ID NO: 62) (scFv)
scFv: DIVMTQSPSSLAMSVGQKVTMSCKSSQSLLNSSNQKNYLAWYQQKPGQSPKLLVYFASTRESGVPDRFIGSGSGTDFTLTISSVQAEDLADYFCQQHYSTPLTFGAGTKLELKRGGGGSGGGGSGGGGSEVKLEESGGGLVKPGGTLKLSCAASGFTFSSYAMSWVRQTPEKRLDWVATISSGGSYIFYPDSVKGRFTISRDNARNTLYLQMNSLRSEDTAMYYCARHHNPDKSGFAYWGQGTLVTVSAAAALEHHHHHH
notes: also called wild scFv antibody fragment
